Measured values published in patent publication US20130115635A1.

Tests used:
Peptide N-YEPEA-C [1] = test: ITC, 293.1 K
Peptide N-YEPEA-C [2] = test: ITC, 298.1 K
Peptide N-YEPEA-C [3] = test: ITC, 303.1 K
Peptide N-YEPEA-C [4] = test: ITC, 310.1 K

Kd (Peptide N-YEPEA-C [1]): 240 nM
Stoichiometry (Peptide N-YEPEA-C [1]): 0.98
Kd (Peptide N-YEPEA-C [2]): 190 nM
Stoichiometry (Peptide N-YEPEA-C [2]): 0.99
Kd (Peptide N-YEPEA-C [3]): 460 nM
Stoichiometry (Peptide N-YEPEA-C [3]): 0.94
Kd (Peptide N-YEPEA-C [4]): 850 nM
Stoichiometry (Peptide N-YEPEA-C [4]): 0.92
B1: NbSyn2 (VHH)
VHH: QGQLVESGGGSVQAGGSLRLSCAASGIDSSSYCMGWFRQRPGKEREGVARINGLGGVKTAYADSVKDRFTISRDNAENTVYLQMNSLKPEDTAIYYCAAKFSPGYCGGSWSNFGYWGQGTQVTVSS
